Bridges are numbered along the chain shown (N, C = ends). [ ]: non-standard residue; d: D form. Chg = N[C@H](C(=O)O)C1CCCCC1
T1: CathepsinG, from human neutrophils (human, UniProt P08311 21-244)
T1 sequence (looked up): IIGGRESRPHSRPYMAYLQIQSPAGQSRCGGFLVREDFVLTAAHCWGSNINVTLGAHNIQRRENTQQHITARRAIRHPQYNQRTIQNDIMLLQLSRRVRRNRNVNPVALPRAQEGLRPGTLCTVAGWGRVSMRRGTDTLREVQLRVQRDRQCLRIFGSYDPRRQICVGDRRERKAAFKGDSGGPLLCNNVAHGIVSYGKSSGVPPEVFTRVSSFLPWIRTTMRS


Target: T1, CathepsinG, from human neutrophils
Test: cell-based or functional assay

Binder	IC50 [nmol]
XCTKSDPPICD (HELM PEPTIDE1{[Nle].C.T.K.S.D.P.P.I.C.D.[dP].P}$PEPTIDE1,PEPTIDE1,2:R3-10:R3|PEPTIDE1,PEPTIDE1,1:R1-13:R2$$$V2.0; SMILES CCCC[C@@H]1NC(=O)[C@@H]2CCCN2C(=O)[C@H]2CCCN2C(=O)[C@H](CC(=O)O)NC(=O)[C@@H]2CSSC[C@H](NC1=O)C(=O)N[C@@H]([C@@H](C)O)C(=O)N[C@@H](CCCCN)C(=O)N[C@@H](CO)C(=O)N[C@@H](CC(=O)O)C(=O)N1CCC[C@H]1C(=O)N1CCC[C@H]1C(=O)N[C@@H]([C@@H](C)CC)C(=O)N2) [Example 43]	77
XCTKSDPPXCN (HELM PEPTIDE1{[Nc1ccc(C[C@H](N[*:1])C(=O)[*:2])cc1].C.T.K.S.D.P.P.[Cha].C.N.[dP].P}$PEPTIDE1,PEPTIDE1,2:R3-10:R3|PEPTIDE1,PEPTIDE1,1:R1-13:R2$$$V2.0; SMILES C[C@@H](O)[C@@H]1NC(=O)[C@@H]2CSSC[C@H](NC(=O)[C@H](CC3CCCCC3)NC(=O)[C@@H]3CCCN3C(=O)[C@@H]3CCCN3C(=O)[C@H](CC(=O)O)NC(=O)[C@H](CO)NC(=O)[C@H](CCCCN)NC1=O)C(=O)N[C@@H](CC(N)=O)C(=O)N1CCC[C@@H]1C(=O)N1CCC[C@H]1C(=O)N[C@@H](Cc1ccc(N)cc1)C(=O)N2) [Example 70]	69
cyclo([Chg]CTK[AlloThr]DPPYCY[dP]P) (disulfide 2-10) [Example 67]	48
XCTKSDPPICN (HELM PEPTIDE1{[O=C([C@H](Cc1ccccc1Cl)N[*:1])[*:2]].C.T.K.S.D.P.P.I.C.N.[dP].P}$PEPTIDE1,PEPTIDE1,2:R3-10:R3|PEPTIDE1,PEPTIDE1,1:R1-13:R2$$$V2.0; SMILES CC[C@H](C)[C@@H]1NC(=O)[C@@H]2CCCN2C(=O)[C@@H]2CCCN2C(=O)[C@H](CC(=O)O)NC(=O)[C@H](CO)NC(=O)[C@H](CCCCN)NC(=O)[C@H]([C@@H](C)O)NC(=O)[C@@H]2CSSC[C@H](NC1=O)C(=O)N[C@@H](CC(N)=O)C(=O)N1CCC[C@@H]1C(=O)N1CCC[C@H]1C(=O)N[C@@H](Cc1ccccc1Cl)C(=O)N2) [Example 45]	47
XCTKSDPPICN (HELM PEPTIDE1{[Nle].C.T.K.S.D.P.P.I.C.N.[dP].P}$PEPTIDE1,PEPTIDE1,2:R3-10:R3|PEPTIDE1,PEPTIDE1,1:R1-13:R2$$$V2.0; SMILES CCCC[C@@H]1NC(=O)[C@@H]2CCCN2C(=O)[C@H]2CCCN2C(=O)[C@H](CC(N)=O)NC(=O)[C@@H]2CSSC[C@H](NC1=O)C(=O)N[C@@H]([C@@H](C)O)C(=O)N[C@@H](CCCCN)C(=O)N[C@@H](CO)C(=O)N[C@@H](CC(=O)O)C(=O)N1CCC[C@H]1C(=O)N1CCC[C@H]1C(=O)N[C@@H]([C@@H](C)CC)C(=O)N2) [Example 41]	49
XCTKSDPPICY (HELM PEPTIDE1{[Nc1ccc(C[C@H](N[*:1])C(=O)[*:2])cc1].C.T.K.S.D.P.P.I.C.Y.[dP].P}$PEPTIDE1,PEPTIDE1,2:R3-10:R3|PEPTIDE1,PEPTIDE1,1:R1-13:R2$$$V2.0; SMILES CC[C@H](C)[C@@H]1NC(=O)[C@@H]2CCCN2C(=O)[C@@H]2CCCN2C(=O)[C@H](CC(=O)O)NC(=O)[C@H](CO)NC(=O)[C@H](CCCCN)NC(=O)[C@H]([C@@H](C)O)NC(=O)[C@@H]2CSSC[C@H](NC1=O)C(=O)N[C@@H](Cc1ccc(O)cc1)C(=O)N1CCC[C@@H]1C(=O)N1CCC[C@H]1C(=O)N[C@@H](Cc1ccc(N)cc1)C(=O)N2) [Example 32]	52
XCTKSDPPICN (HELM PEPTIDE1{[Cha].C.T.K.S.D.P.P.I.C.N.[dP].P}$PEPTIDE1,PEPTIDE1,2:R3-10:R3|PEPTIDE1,PEPTIDE1,1:R1-13:R2$$$V2.0; SMILES CC[C@H](C)[C@@H]1NC(=O)[C@@H]2CCCN2C(=O)[C@@H]2CCCN2C(=O)[C@H](CC(=O)O)NC(=O)[C@H](CO)NC(=O)[C@H](CCCCN)NC(=O)[C@H]([C@@H](C)O)NC(=O)[C@@H]2CSSC[C@H](NC1=O)C(=O)N[C@@H](CC(N)=O)C(=O)N1CCC[C@@H]1C(=O)N1CCC[C@H]1C(=O)N[C@@H](CC1CCCCC1)C(=O)N2) [Example 33]	45
cyclo(FCTKSDPPICS[dN]P) (disulfide 2-10) [Example 69]	68
WCTKSDPPICS (HELM PEPTIDE1{W.C.T.K.S.D.P.P.I.C.S.[dP].P}$PEPTIDE1,PEPTIDE1,2:R3-10:R3|PEPTIDE1,PEPTIDE1,1:R1-13:R2$$$V2.0; SMILES CC[C@H](C)[C@@H]1NC(=O)[C@@H]2CCCN2C(=O)[C@@H]2CCCN2C(=O)[C@H](CC(=O)O)NC(=O)[C@H](CO)NC(=O)[C@H](CCCCN)NC(=O)[C@H]([C@@H](C)O)NC(=O)[C@@H]2CSSC[C@H](NC1=O)C(=O)N[C@@H](CO)C(=O)N1CCC[C@@H]1C(=O)N1CCC[C@H]1C(=O)N[C@@H](Cc1c[nH]c3ccccc13)C(=O)N2) [Example 61]	72
XCTKSDPPICN (HELM PEPTIDE1{[O=C([C@H](CCc1ccccc1)N[*:1])[*:2]].C.T.K.S.D.P.P.I.C.N.[dP].P}$PEPTIDE1,PEPTIDE1,2:R3-10:R3|PEPTIDE1,PEPTIDE1,1:R1-13:R2$$$V2.0; SMILES CC[C@H](C)[C@@H]1NC(=O)[C@@H]2CCCN2C(=O)[C@@H]2CCCN2C(=O)[C@H](CC(=O)O)NC(=O)[C@H](CO)NC(=O)[C@H](CCCCN)NC(=O)[C@H]([C@@H](C)O)NC(=O)[C@@H]2CSSC[C@H](NC1=O)C(=O)N[C@@H](CC(N)=O)C(=O)N1CCC[C@@H]1C(=O)N1CCC[C@H]1C(=O)N[C@@H](CCc1ccccc1)C(=O)N2) [Example 27]	48
XCTKSDPPICS (HELM PEPTIDE1{[O=C([C@H](Cc1cccc2ccccc12)N[*:1])[*:2]].C.T.K.S.D.P.P.I.C.S.[dP].P}$PEPTIDE1,PEPTIDE1,2:R3-10:R3|PEPTIDE1,PEPTIDE1,1:R1-13:R2$$$V2.0; SMILES CC[C@H](C)[C@@H]1NC(=O)[C@@H]2CCCN2C(=O)[C@@H]2CCCN2C(=O)[C@H](CC(=O)O)NC(=O)[C@H](CO)NC(=O)[C@H](CCCCN)NC(=O)[C@H]([C@@H](C)O)NC(=O)[C@@H]2CSSC[C@H](NC1=O)C(=O)N[C@@H](CO)C(=O)N1CCC[C@@H]1C(=O)N1CCC[C@H]1C(=O)N[C@@H](Cc1cccc3ccccc13)C(=O)N2) [Example 62]	69
XCTKSDPPICD (HELM PEPTIDE1{[Cha].C.T.K.S.D.P.P.I.C.D.[dP].P}$PEPTIDE1,PEPTIDE1,2:R3-10:R3|PEPTIDE1,PEPTIDE1,1:R1-13:R2$$$V2.0; SMILES CC[C@H](C)[C@@H]1NC(=O)[C@@H]2CCCN2C(=O)[C@@H]2CCCN2C(=O)[C@H](CC(=O)O)NC(=O)[C@H](CO)NC(=O)[C@H](CCCCN)NC(=O)[C@H]([C@@H](C)O)NC(=O)[C@@H]2CSSC[C@H](NC1=O)C(=O)N[C@@H](CC(=O)O)C(=O)N1CCC[C@@H]1C(=O)N1CCC[C@H]1C(=O)N[C@@H](CC1CCCCC1)C(=O)N2) [Example 35]	54
XCTKSDPPICD (HELM PEPTIDE1{[O=C([C@H](CCc1ccccc1)N[*:1])[*:2]].C.T.K.S.D.P.P.I.C.D.[dP].P}$PEPTIDE1,PEPTIDE1,2:R3-10:R3|PEPTIDE1,PEPTIDE1,1:R1-13:R2$$$V2.0; SMILES CC[C@H](C)[C@@H]1NC(=O)[C@@H]2CCCN2C(=O)[C@@H]2CCCN2C(=O)[C@H](CC(=O)O)NC(=O)[C@H](CO)NC(=O)[C@H](CCCCN)NC(=O)[C@H]([C@@H](C)O)NC(=O)[C@@H]2CSSC[C@H](NC1=O)C(=O)N[C@@H](CC(=O)O)C(=O)N1CCC[C@@H]1C(=O)N1CCC[C@H]1C(=O)N[C@@H](CCc1ccccc1)C(=O)N2) [Example 29]	42
XCTKSDPPXCY (HELM PEPTIDE1{[O=C([C@@H](N[*:1])C1CCCCC1)[*:2]].C.T.K.S.D.P.P.[Cha].C.Y.[dP].P}$PEPTIDE1,PEPTIDE1,2:R3-10:R3|PEPTIDE1,PEPTIDE1,1:R1-13:R2$$$V2.0; SMILES C[C@@H](O)[C@@H]1NC(=O)[C@@H]2CSSC[C@H](NC(=O)[C@H](CC3CCCCC3)NC(=O)[C@@H]3CCCN3C(=O)[C@@H]3CCCN3C(=O)[C@H](CC(=O)O)NC(=O)[C@H](CO)NC(=O)[C@H](CCCCN)NC1=O)C(=O)N[C@@H](Cc1ccc(O)cc1)C(=O)N1CCC[C@@H]1C(=O)N1CCC[C@H]1C(=O)N[C@@H](C1CCCCC1)C(=O)N2) [Example 66]	48
XCTKSDPPICT (HELM PEPTIDE1{[Cha].C.T.K.S.D.P.P.I.C.T.[dP].P}$PEPTIDE1,PEPTIDE1,2:R3-10:R3|PEPTIDE1,PEPTIDE1,1:R1-13:R2$$$V2.0; SMILES CC[C@H](C)[C@@H]1NC(=O)[C@@H]2CCCN2C(=O)[C@@H]2CCCN2C(=O)[C@H](CC(=O)O)NC(=O)[C@H](CO)NC(=O)[C@H](CCCCN)NC(=O)[C@H]([C@@H](C)O)NC(=O)[C@@H]2CSSC[C@H](NC1=O)C(=O)N[C@@H]([C@@H](C)O)C(=O)N1CCC[C@@H]1C(=O)N1CCC[C@H]1C(=O)N[C@@H](CC1CCCCC1)C(=O)N2) [Example 34]	56
